From the DeepSol protein solubility set come the findings set out here.

The nature of the data set: soluble on expression in E. coli; label from the status in PepcDB or PDB records.
Turning to “MKMNYHLSTSSYTTSMLSCTVLDDDIRYEKLSWKLDEAEMQGLIM”, the “soluble on expression in E. coli” value is reported as “soluble”.

In the case of “MEVEIEDIDEVATLTETDIVEIQTKLIEDLQEMVVKDKEKHEKLLKLGEHVLDEQTRLRTRLSEEFGDFLNRSKRSLTRNFETADGNVYSFEKNLRELLHLYITVHNRVKQDEKEVAKQDEFLNQIDRNEMELKDLRDNIRSLRSELTVDVGPVSSVTSKTSGIEANFIVKPYKPLETELATQIVRVNRELEILKMQLPNCDHFPNLMNPVQKLGEKVTGMVMKDLPAKKLQDFLDTLPPMKRD”, the “soluble on expression in E. coli” value is “not soluble”.

Take “MGSDKIHHHHHHMGIEAAVGAWNNTPRGDFAYKGTNLDIKDELKYDDETRLMGRVKIETPLFFPNLYLMATPMEFDGQGSKSGTFQFGDVTFDGTVPFTSELKLDHYDLGLYWGIPLLKTATAGVVNVDLGIDARLIDLKAEVVQGGVTESKSLVVGVPMIYAGVQVRPLSWFAAEGEARGMAYGDNRYYDLIARGKLILFDHLFAAAGYRYEKIEIDESDIKADVDFGGPFAEVGFQF”: the “soluble on expression in E. coli” value was “not soluble”.

For the sequence “MAVGEVMRMEIPAGGDLTVTTPELHVLAVDDSIVDRKVIERLLRISSCKVTTVESGTRALQYLGLDGGKGASNLKDLKVNLIVTDYSMPGLSGYDLLKKIKESSAFREVPVVIMSSENILPRIQECLKEGAEEFLLKPVKLADVKRIKQLIMRNEAEECKILSHSNKRKLQEDSDTSSSSHDDTSIKDSSCSKRMKSESENLFSLL”, the “soluble on expression in E. coli” value is “not soluble”.

Turning to “MFMFEKPHGMRDTLPGLYETKKKVRRSLTDLIDKWGYQFMETPTLEFYDTVGVQSAIEEQQLFKLLDQDGKTLVLRPDMTGPIARVAASKLLKHGHPLRVGYAANVFRAQEREGGRPAEFEQVGVELIGDGTTSADAEVIALVVGALKNAGLASFKIAIGHAGIADALFVEVLGNVERADVLRRFLYEKNYVGYREHVKSLPLSSIDKSRLLELLELRGGIEVCGRAEEIVDSAQGKSVVDELKALWDILEDYGCTENVRLDLNMVSHMSYYTGILFEVYAENVGFVIGSGGRYNKLLGHFDSPAPATGFGLRIDRLIEALHMKDEPCEIDAVIFSKEQRAQAIAYANEERMKGNKVVLQDLSGIENIDQMTKSFANVTYFIGARKEEQNG”, the “soluble on expression in E. coli” value is listed as “not soluble”.

Regarding “MSLSEPSVQADTRLNALIVQDIPERMPIYRALIEQLDVPSTLIEIEAMIVDVNTDLVNELGVTWGAQIGTTSLGYGDLGLRPGNGLPVDGAAAELAPGTLGISVSTRLAARLRALESDGQANILSQPSILTADNLGAMIDLSDTFYIRTLGERVATVTPVTVGTSLRVTPRYIAAKGGRQVELAIDIEDGRVLQEYPIDGLPRVRKSSISTLAVVGDEQTLLIGGYNNRRDEEQVEKVPLLGDIPGLGFLFSSKSRAVQRRERLFLIRPRVVAIEGKPVFSPVAGTSQVFMSTEGHHHHHH”, the “soluble on expression in E. coli” value is reported as “soluble”.

In the case of “MGSDKIHHHHHHMQAEAQHPKAEQYRTARLSRDARFDGLFFVGVFSTGIFCRPICPAVPAKEANVRYFDDALSAAQAGLRPCLRCRPDSAPGSNPWLGKQTSLNRAMSLIDAGVLCGPQAIPMTGLAERLGISERYLRQLFHDSLGTSPKQYALYQQLMFAKQLLHQTKMPITQVAYAAGFNSVRRFNEIFRQQLQLTPSEIRKATGQPSLPVQGLTLKLAYRPPYDWQHLRSFFAQRAVPEMEWLDEQSYGRSFVLGAAKGYFCAVHSEQEACFHVTIHLAEADSLSQLKGIISHIRRILDLDADMLTIGDKLQALGKALPQVSPGLRLPGVWSPFEAACRAILGQQVSVTQAIKLLGQLVADHGETISLNEKTVRLFPTPAALVDASLDGLKMPGIRKEAIRALAAFVMANPESEIDDWLQIKGIGPWTLDYVRLRGLSLPDVLLVGDLVVKQQLLVNLRPEPSSCDGEPAEDEDPKAAKKRAQAQYQALSQAVLRQVAPWGSYLTLQLWNRQ”, the “soluble on expression in E. coli” value is “not soluble”.

“MGSDKIHHHHHHKYTLRFGHVLAPGEPYHQAFLKWAKAVEEKTNGDVRIEVFPSSQLGVEEDIIEQIRMGAPVGWNTDSARLGMYVKDIGVMNLAYFIDFMGAKTPEEAIEVLKKIKQSPTMQKWLKELEQRFGIKVLSFYWVQGYRHFVTNKPIRKPEDLNGLRIRTPGAPAWQESIRSLGAIPVAVNFGEIYTAVQTRAVDGAELTYANVYNGGLYEVLKYMSETGHFLLINFEIVSADWFNSLPKEYQKIIEEEMDKAGIEVSLKIMKELEEEYKQKCIEKGMAVIPASEIDKEAFMEKAKQAYKNLGLENALNQLIKEVKGE”: the “soluble on expression in E. coli” value is on record as “not soluble”.

For the sequence “MGSDKIHHHHHHMRNQSKMPLVERLDAHAKSCPISLHVPGHKSGAIYPDAWQKFLKWDVTEITGMDDLHHPEDVILEAEELLAECYGSKKSYFLVNGTSGGSLAVIMATLKHGEKVLVPRDAHKSILHGIELAGGEPIFLTPATNKEVGVASGVTTELLEETLHNHPDIKLCIFTYPSYYGTTFNLHKCIQIAHDFGAVVFVDEAHGAHFLTSSEFPKSAVELGADVVVQSAHKTLPALTMGSYLHVVNDLPIFEKLPYYLQVFQTSSPSYLIMASLDAARKYAATYTAADVEAFWKMRARWIKWLTKNKFDVILPDDPLKIIVRKTGYTGYELQAIFEESSYFPELADESQVLLILPLIKKGIDFTPISRIHSPVKKEIAKEPYEMSAPFASGLALTYEEMHARATEFVLLDEATTRVSAETISLYPPGIPAIIRGESITEKHIRELKNIRTRHYQGGEKLAENYIRVFR”, the “soluble on expression in E. coli” value is listed as “not soluble”.

On to “MGSDKIHHHHHHMQQLFVQLLEERYFNRLPEALVLKFATESADFVRFWLVHCMRSMVSERELAIALFFSAEWELEELASLKSFWGSYVAMEEAQEVKATFCHFVPWLKTISPHHEDAICVFSALWFFEHRPTSVGKQLQSATLSHSQLPVSLLDDIKLFSLPHLRPITVYGHQGKGSVESGIRNNMHYPTPIPNDNLAMACVERVIAKFAGIKLAFAEPIVVLRYEPGQFYQWHYDAIHAYTAEIQAELERFGQRSRTAILYLNDDFEGGETEFKAPYIQVKPETAAILVFDNTDQTGKPIPSSLHRGCEVTAGKKWVCTQWFRDKPFWLRAGLLA”, for which the “soluble on expression in E. coli” value was “not soluble”.

With “MVNIMDEIIVVTTPTIPGYKIIEVKGIARGGIVMATHLGRDILALLRNIKGGEVKEYTQMMAEAREEALRRMIEHAKKLGANAVVNFRFATSNVGGGMAEVYAYGTAVVVEREKMASMTGGQQMGRIRIRLEHHHHHH”, the “soluble on expression in E. coli” value is “soluble”.

Take “MGSDKIHHHHHHMIIKTSFLIVIHAQYAKKVVGKKISIYFTIHSGIKIFVKMKTCARISCFLILAVCSFFDAAAQGNFLLWEITGNGLADTSYLFGTIHIRDKRVFNLGDSTYYAITHTKALYGELNLQDKSEMKQHAPELLMPSGTSLQAMLSAQDYKLVKKYCKKHIGVYALLINKIKPIYISAVVSEDLLKKEEKKPLDLYLQDYAARQGNEIGGIETFQEQLSVIDLLPLQEQADMLVEQIKNIDQEKILMEQMLQFYLNESLDSLEILVQEDTLSQEFNEAILDARNKVMLTRMETQMNREPTFFAVGAAHLAGEKGLVILLRKAGYTVRPVKRK”: the “soluble on expression in E. coli” value is reported as “not soluble”.

“TMEEELEPVVRHLVEQRWPFRLHATYNESITRMLDVFEKVNRDIPFNGLPWFFDHAETITPQNIERVRALGGGIAIQDRMAFQGEYFVDRYGAKAAEQTPPIKRMLEMGVPVGAGTDATRVSSYNPWTSLYWLVSGKTVGGMELYPEGLSRDTALQLFTQGSAWFSSEQGKKGQIKVGQLADLAALSLDFFSVDEEAIKGIESVLTIVDGKVVYGAGEFDKFGPPQVPVLPEWSPVTKVPGHWRVGTPSLAAAVHQCSGPCGVHAHSHEKARHSSVPVNDFQGFWGALGCSCFA”: the “soluble on expression in E. coli” value is “not soluble”.

On to “TFGKDNIKSKVILFSIEKPSKEVAEKLEMQDDYIYRIIRMREVGHKAYSIEHTYMPLAIIPGLEPHHLEDSIYNYIRDDLKLKMQSAHVWVRGDKSNQEDSKLLDLEEPTFMMEIEKLAHLEDGRVFEYSITRHTYESFV”, for which the “soluble on expression in E. coli” value is reported as “not soluble”.

Consider “SSGLSESKQTHVHLRNVDAATLQIIITYAYTGNLAMNDSTVEQLYETACFLQVEDVLQRCREYLIKKINAENCVRLLSFADLFSCEELKQSAKRMVEHKFTAVYHQDAFMQLSHDLLIDILSSDNLNVEKEETVREAAMLWLEYNTESRSQYLSSVLSQIRIDALSEVTQRAWFQGLPPNDKSVVVQGLYKSMPKFFKPRLGMTKEEMMIFIEASSENPCSLYSSVCYSPQAEKVYKLCSPPADLHKVGTRCNS”, for which the “soluble on expression in E. coli” value was “soluble”.

On to “MGSDKIHHHHHHMDQAQIEIQVLSSLSQIAASDWDACACPEAEAGGRPLDPFTTHRFLSALEDSGSVGQGTGWQPQYLTCYLDGQLVACAPLYAKGHSQGEYIFDHNWAHAYERAGGRYYPKLQVAVPFTPATGRRFLVRPGYEEIGISALLQGAVQLASDNQLSSLHVTFCTSDEAEAGREIGLMSRSSQQFHWLNDGYAGFEAFLAALSSRKRKNIRKERKQAQGFGGSIETYTGADLRSEHWDAFWRFYQDTGSRKWGTPYLTRAFFEIIHDTMAEDMALVLAERDGVPVAGALNFIGAKTLYGRYWGCMEHHPCLHFELCYYQAIDLAIEMGLDRVEAGAQGEHKLARGYLPTETHSLHWVADPGFRAAIEQYLEAERAAVGEEIEILTSYGPFKKTHVEEQE”, for which the “soluble on expression in E. coli” value is reported as “not soluble”.

With “MGSDKIHHHHHHMEQYKEVHINSLNKEELEKLAKMGQLIDVRTKEEYELGHINGSTLHPVEEIKSFNKNSNKTYYIHCKSGNRSTKACDYLAKQGYDVVNLKGGYKDYEAKNFNSAPLIEKDIEIKENRKQFDFRGLQCPGPIVNISKEINNISTGEQIEVTVTDPGFNSDIKSWAKQTGNTLVNLTEEANVINAIIQKEKPKEFEINDTATGTTIVLFSGELDKAVAAMIIANGAKAAGKDVTIFFTFWGLNALKKAQSTRVKKKGISKMFDLMLPKDPIHMPLSKMNMFGLGNIMMRYVMNKKNVDSLYSLIDQAIDQDIKLIACTMSMDVMGISKEELRDEVDYGGVGTYIGHTEQANHNLFI”, the “soluble on expression in E. coli” value is reported as “not soluble”.

On to “MGSDKIHHHHHHMTQLLTKIRRKKIHKGLLLYRLFQQLPVQKNLVLFESFLGRGYSDNPKALYLTLQKQRPELELVWIFAKEPNAAVKAACPNWVLRNSPKYYYLMARAQYWIFNTRQPLSLKKRRETMYLQTWHGTPLKRLGLDMDEVHMPGTNTEQYKKNFSAQAKEWNYLLSPNLYSSAIFKRAFDFRGLLLETGYPRNDLLYAPDRQQQAGQIKQSLRLPPGKKVILYAPTWRDDEFVTKGQYRFNLKLDLKQIQSRLGDDYIVLLRMHYLIAEHLDLTAFDGFAYDVSAYGDIAELYLISDLLITDYSSVFFDYAHLNRPMLFFTYDLEKYASILRGFYFDFEAVVPGPLLKESDQVIDYIEDIATQSKQYEEKYTAFQERFCSLDDGKASQRVVDALFK”, for which the “soluble on expression in E. coli” value is reported as “not soluble”.

“MGSDKIHHHHHHMLNPLWLKTFITLVETGHFTQTASKLFMTQPGVSQHLNKLEQACGHQLLIRSRSGIELTEAGERLYQYALSQARAEAALLDSLDEDNPFSGSCRLACSGSLAQLLYPKLLALQAAHPGLKVHMEAAPNARIINEVQQGDKDLGIITAPPPRGLFSDTDIGTQALCLVLPASSEATTDDASLPSINELKVLGLISHPDAAHYLSLFFAHSGSPGYQNAFAEDFPISSYINQLGQILLPVSMGLGFTVLPLSVVEQFSERDKLRVCVGLERVFEPLYLIHKRQRQLPARFDTIRSLIQSVLTSTTDSPQ”: the “soluble on expression in E. coli” value is recorded as “not soluble”.

As for “MGSDKIHHHHHHMLRLFQRKSAVLPPVAAVTETALSKGLLQPKPAAELLATPRRQKLLEHIWQRTSLSRKQFHTLYRVPLERYADLVQQFPASESHHHAYLGGMLDHGLEIVAFALKLRQSHLLPAGASPEDQAAQAEAWTAAVAYAALLHDIGKIAVDLHVELQGGRIWHPWHGPLSQPYRFRHREGREYRLHGAATGLLYSRILDSAALDWLSGYPALWSQLLYVLSGQYEHADMLGELVVQADRASVAQELGGDPAKVMAAPKHALQRKLLEGLRYLLKEQLKLNQPEASDGWLTEDALWLVSKTVSDKLRAHLLSQGIDGIPASNSAVFNVLQEHSMLQLTCPHRPYQ”, the “soluble on expression in E. coli” value was “not soluble”.
